# Assay results reported in patent publication US20170002055A1, “Novel peptides and combination of peptides for use in immunotherapy against ovarian cancer and other cancers” (immatics biotechnologies GmbH, priority 2015, published 2017).
# Target: HLA-A*02:01 (Homo sapiens, UniProt P04439, D140Y/D185E/D98H/E176V/E277Q/G131W/G231S/I119V/I121R/I166T/I218V/L300P/L318F/N151K/N90K/P208A/P217A/Q86G/Q94H/R138H/R169H/T345S)
# Assay: MHC binding assay (UV-ligand exchange, β2m ELISA, peptide exchange yield)
# Conditions: MHC class I binding score; binding to HLA-A*02:01 ranged by peptide exchange yield (UV-ligand exchange, β2m ELISA)
# From the text: Candidate peptides for T cell based therapies according to the present invention were further tested for their MHC binding capacity (affinity). The individual peptide-MHC complexes were produced by UV-ligand exchange, where a UV-sensitive peptide is cleaved upon UV-irradiation, and exchanged with the peptide of interest as analyzed. Only peptide candidates that can effectively bind and stabilize the peptide-receptive MHC molecules prevent dissociation of the MHC complexes. To determine the yield of the exchange reaction, an ELISA was performed based on the detection of the light chain (β2m) of stabilized MHC complexes. The assay was performed as generally described in Rodenko et al. (Rodenko et al., 2006).
# 96 well MAXISorp plates (NUNC) were coated over night with 2 ug/ml streptavidin in PBS at room temperature, washed 4× and blocked for 1h at 37° C. in 2% BSA containing blocking buffer. […] Peptide-MHC monomers of the UV-exchange reaction were diluted 100 fold in blocking buffer. Samples were incubated for 1h at 37° C., washed four times, incubated with 2 ug/ml HRP conjugated anti-β2m for 1h at 37° C., washed again and detected with TMB solution that is stopped with […]. Absorption was measured at 450 nm. Candidate peptides that show a high exchange yield (preferably higher than 50%, most preferred higher than 75%) are generally preferred for a generation and production of antibodies or fragments thereof, and/or T cell receptors or fragments thereof, as they show sufficient avidity to the MHC molecules and prevent dissociation of the MHC complexes.
row,Substance,Peptide exchange
1,1 (SLMEPPAVLLL; listed as Homo sapiens) [compound 1],“+++” (≧50 = +++)
2,4 (GIMEHITKI; listed as Homo sapiens) [compound 4],“++++” (≧75% = ++++)
3,6 (VLVSDGVHSV; listed as Homo sapiens) [compound 6],“+++” (≧50 = +++)
4,9 (GAAKDLPGV; listed as Homo sapiens) [compound 9],“++” (≧20% = ++)
5,10 (FLATFPLAAV; listed as Homo sapiens) [compound 10],“++++” (≧75% = ++++)
6,12 (SLWPDPMEV; listed as Homo sapiens) [compound 12],“+++” (≧50 = +++)
7,13 (YLMDESLNL; listed as Homo sapiens) [compound 13],“+++” (≧50 = +++)
8,14 (AAYGGLNEKSFV; listed as Homo sapiens) [compound 14],“+++” (≧50 = +++)
9,15 (VLLTFKIFL; listed as Homo sapiens) [compound 15],“++” (≧20% = ++)
10,16 (VLFQGQASL; listed as Homo sapiens) [compound 16],“+++” (≧50 = +++)
11,18 (YLVAKLVEV; listed as Homo sapiens) [compound 18],“++” (≧20% = ++)
12,20 (RMIEYFIDV; listed as Homo sapiens) [compound 20],“+++” (≧50 = +++)
13,21 (VLDELDMEL; listed as Homo sapiens) [compound 21],“++” (≧20% = ++)
14,22 (IMEENPGIFAV; listed as Homo sapiens) [compound 22],“+++” (≧50 = +++)
15,23 (VLLDDIFAQL; listed as Homo sapiens) [compound 23],“+++” (≧50 = +++)
16,24 (SLSDGLEEV; listed as Homo sapiens) [compound 24],“++” (≧20% = ++)
17,25 (FLPDEPYIKV; listed as Homo sapiens) [compound 25],“+++” (≧50 = +++)

row,Substance,Peptide exchange
1,26 (ALLELAEEL; listed as Homo sapiens) [compound 26],“+++” (≧50 = +++)
2,27 (ILADIVISA; listed as Homo sapiens) [compound 27],“+++” (≧50 = +++)
3,28 (QLLDETSAITL; listed as Homo sapiens) [compound 28],“+++” (≧50 = +++)
4,29 (KMLGIPISNILMV; listed as Homo sapiens) [compound 29],“+++” (≧50 = +++)
5,30 (LILDWVPYI; listed as Homo sapiens) [compound 30],“+++” (≧50 = +++)
6,31 (YLAPELFVNV; listed as Homo sapiens) [compound 31],“++” (≧20% = ++)
7,32 (KLDDLTQDLTV; listed as Homo sapiens) [compound 32],“++” (≧20% = ++)
8,33 (VLLSLLEKV; listed as Homo sapiens) [compound 33],“++” (≧20% = ++)
9,34 (ILVEADSLWVV; listed as Homo sapiens) [compound 34],“+++” (≧50 = +++)
10,35 (KINDTIYEV; listed as Homo sapiens) [compound 35],“+++” (≧50 = +++)
11,39 (SVAPNLPAV; listed as Homo sapiens) [compound 39],“+++” (≧50 = +++)
12,41 (SLMPHIPGL; listed as Homo sapiens) [compound 41],“+++” (≧50 = +++)
13,42 (VLLQKIVSA; listed as Homo sapiens) [compound 42],“+++” (≧50 = +++)
14,43 (VLSSLEINI; listed as Homo sapiens) [compound 43],“++” (≧20% = ++)
15,44 (ILDPISSGFLL; listed as Homo sapiens) [compound 44],“++” (≧20% = ++)
16,45 (SLWQDIPDV; listed as Homo sapiens) [compound 45],“+++” (≧50 = +++)
17,46 (ILTEENIHL; listed as Homo sapiens) [compound 46],“+++” (≧50 = +++)

# Other lines, results leading:
row,Peptide exchange,Substance
1,“++” (≧20% = ++),47 (ILLSVPLLVV; listed as Homo sapiens) [compound 47]
2,“+++” (≧50 = +++),50 (SLSELEALM; listed as Homo sapiens) [compound 50]
3,“++++” (≧75% = ++++),51 (LLPDLEFYV; listed as Homo sapiens) [compound 51]
4,“++++” (≧75% = ++++),52 (FLLAHGLGFLL; listed as Homo sapiens) [compound 52]
5,“++++” (≧75% = ++++),53 (KMIETDILQKV; listed as Homo sapiens) [compound 53]
6,“+++” (≧50 = +++),54 (SLLEQGKEPWMV; listed as Homo sapiens) [compound 54]
7,“++++” (≧75% = ++++),55 (SLLDLETLSL; listed as Homo sapiens) [compound 55]
8,“+++” (≧50 = +++),57 (TLAELQPPVQL; listed as Homo sapiens) [compound 57]
9,“+++” (≧50 = +++),59 (IMEDIILTL; listed as Homo sapiens) [compound 59]
10,“++++” (≧75% = ++++),62 (VLLDVSAGQLLM; listed as Homo sapiens) [compound 62]
11,“++” (≧20% = ++),63 (YLLPSGGSVTL; listed as Homo sapiens) [compound 63]
12,“++” (≧20% = ++),64 (YAAPGGLIGV; listed as Homo sapiens) [compound 64]
13,“+++” (≧50 = +++),66 (FLDENIGGVAV; listed as Homo sapiens) [compound 66]
14,“+++” (≧50 = +++),67 (TLLAEALVTV; listed as Homo sapiens) [compound 67]
15,“++++” (≧75% = ++++),68 (SLMELPRGLFL; listed as Homo sapiens) [compound 68]
16,“+++” (≧50 = +++),69 (FQLDPSSGVLVTV; listed as Homo sapiens) [compound 69]
17,“+++” (≧50 = +++),70 (GLLDYPVGV; listed as Homo sapiens) [compound 70]
18,“+++” (≧50 = +++),71 (GILARIASV; listed as Homo sapiens) [compound 71]
19,“+++” (≧50 = +++),72 (SLLELDGINL; listed as Homo sapiens) [compound 72]
20,“+++” (≧50 = +++),73 (NIFDLQIYV; listed as Homo sapiens) [compound 73]

row,Peptide exchange,Substance
1,“+++” (≧50 = +++),74 (ALLDPEVLSIFV; listed as Homo sapiens) [compound 74]
2,“+++” (≧50 = +++),75 (GLLEVMVNL; listed as Homo sapiens) [compound 75]
3,“+++” (≧50 = +++),76 (ILIDSIYKV; listed as Homo sapiens) [compound 76]
4,“++++” (≧75% = ++++),77 (ILVEADGAWVV; listed as Homo sapiens) [compound 77]
5,“+++” (≧50 = +++),78 (SLFSSLEPQIQPV; listed as Homo sapiens) [compound 78]
6,“++” (≧20% = ++),80 (FLYDNLVESL; listed as Homo sapiens) [compound 80]
7,“++” (≧20% = ++),81 (FLFSQLQYL; listed as Homo sapiens) [compound 81]
8,“+++” (≧50 = +++),82 (FLSSVTYNL; listed as Homo sapiens) [compound 82]
9,“+++” (≧50 = +++),83 (ILAPTVMMI; listed as Homo sapiens) [compound 83]
10,“++” (≧20% = ++),84 (VTFGEKLLGV; listed as Homo sapiens) [compound 84]
11,“+++” (≧50 = +++),85 (KMSELRVTL; listed as Homo sapiens) [compound 85]
12,“+++” (≧50 = +++),86 (NLIGKIENV; listed as Homo sapiens) [compound 86]
13,“++” (≧20% = ++),87 (ALPEAPAPLLPHIT; listed as Homo sapiens) [compound 87]
14,“+++” (≧50 = +++),88 (FLLVGDLMAV; listed as Homo sapiens) [compound 88]
15,“++++” (≧75% = ++++),89 (YILPTETIYV; listed as Homo sapiens) [compound 89]
16,“+++” (≧50 = +++),90 (TLLQIIETV; listed as Homo sapiens) [compound 90]
17,“++++” (≧75% = ++++),91 (IMQDFPAEIFL; listed as Homo sapiens) [compound 91]
18,“++” (≧20% = ++),92 (YLIPFTGIVGL; listed as Homo sapiens) [compound 92]
19,“++” (≧20% = ++),93 (LLQAIKLYL; listed as Homo sapiens) [compound 93]
